“Also recorded” adds a separate entry of the source.

These results are taken from patent publication US20230405078A1, “DETECTION AND TREATMENT OF INTESTINAL FIBROSIS” (THE REGENTS OF THE UNIVERSITY OF CALIFORNIA, priority 2020, published 2023).

One data set concerns SAMP1/YitFc mice. The data set can be described thus: Spontaneous ileal fibrosis in SAMP1/YitFc mice. It counts as in vivo. Conditions: SAMP1/YitFc model. As to the method: Eight-week-old male and female SAMP1/YitFc mice (#009355) and normal AKR strain control mice (#000648) were purchased from Jackson Laboratories. SAMP1/YitFc mice developed spontaneous ileal inflammation and fibrosis at 40 weeks of age.
Some groups were treated with antibiotics mixture in drinking water ad libitum from 10 to 42 weeks of age. Others received a single intraperitoneal injection (1×10^7 infectious units/mouse) of either control lentivirus or elafin-expressing lentivirus (RC203136L1V, Origene) at 40-weeks of age. Ileal tissues were collected for analysis two weeks after the lentiviral injection.
H&E and Masson Trichrome (MT) staining were performed as described previously. Microphotographs were recorded at multiple locations and scored by two investigators blindly. Intestinal injuries were scored (0-12). The severity of intestinal fibrosis was assessed by MT staining and scored (0-3). ZEB1 immunohistochemistry was performed using an anti-ZEB1 antibody (HPA027524, Sigma).
Total RNA was isolated by an RNeasy kit (#74104, Qiagen) and reverse transcribed into cDNA by a high-capacity cDNA reverse transcription kit (#4368813, ThermoFisher). […] Relative mRNA/miRNA quantification was performed by comparing test groups and control groups after normalization with endogenous control genes. The fold changes are expressed as 2^ΔΔCt. […]

Data set [1] is described as follows: Basic pharmacokinetics of subcutaneous elafin in RD-treated male mice. In kind it is in vivo. Conditions: natural elafin 1 mg/kg subcutaneous. As to the method: FIG. 36. Subcutaneous and oral administration of modified elafin inhibited hyperphagia and hyperglycemia in HFD-treated male mice. (A) Elafin (1 mg/kg) was injected into RD-treated male mice subcutaneously. Tail-vein blood samples were collected for elafin ELISA. This mouse experiment was intended for the determination of basic pharmacokinetics of elafin, but not the determination of physiology of elafin. (B) HFD-treated mice were treated with either oral gavage of Elafin-Eudragit formulation (10 mg/kg) daily or subcutaneous injection of PEG-elafin (3.25 mg/kg) every 48 h for 14 days. Serum elafin levels. (C) Serum leptin levels. (D) Serum IFNγ and IL-1β levels. (E) Daily food consumption. (F) Change in fat mass. (G) Change in body weight over 14 days. (H) Fasting blood glucose levels. Each group consists of 8 mice.

Another data set has as its system 3T3-L1 adipocytes. The data set can be described thus: Lipid accumulation and gene expression in 3T3-L1 adipocytes. It counts as cell-based, mouse. The settings on record: 24-h; elafin 10 ng/ml, miRNA mimics 75 ng/ml. The text has this: FIG. 34. Immune cell-derived miR181b-5p and miR219-5p induced leptin mRNA expression in 3T3-L1 adipocytes. (A) Mouse serum exosomal miRNA expression was profiled by a PCR array. miR219-5p, miR210-3p, and miR181-5p were undetectable in the serum exosomes of HFD-treated mice without elafin overexpression. These three miRNAs were detected in the serum exosomes of elafin-overexpressing HFD-treated mice only. Each group consists of 6 mice. […] (C) The positive correlation between serum elafin levels and miRNAs (miR181b-5p and miR210-3p, but not miR219-5p) in the men with T2DM. […]
Cell culture experiments. […] Adipocyte lipid accumulation was determined using Oil Red O staining, as described previously.
Quantitative real-time reverse transcription-polymerase chain reaction (RT-PCR) and miRNA PCR array. […] Quantitative PCR reactions were run with Fast Universal PCR master mix (#4352042, ThermoFisher) in a Bio-Rad CFX384 using cataloged primers (ThermoFisher) for human elafin (Hs00160066_m1), human leptin (Hs00174877_m1), mouse Cd36 (Mm00432403_m1), mouse adiponectin (Mm00456425_m1), mouse leptin (Mm00434759_m1), and mouse Tnf (Mm00443258_m1). Relative mRNA quantification was performed by comparing test groups and control group, after normalization with endogenous control gene human 18S (Hs99999901_s1) or mouse Gapdh (Mm99999915_g1).

The conditions of data set [2]: cited from earlier work.

In the data set with SAMP1/YitFc mice, “Elafin: small (6 kDa) human elastase-specific protease inhibitor and antimicrobial peptide; active form SEQ ID NO: 2 (AQEPVKGPVSTKPGSCPIILIRCAMLNPPNRCLKDTDCPGIKKCCEGSCGMACFVPQ; listed as Homo sapiens)” registered an overall disease activity of 7%. In data set [1], the half-life in circulation came out at 3 h. In the data set on 3T3-L1 adipocytes, the “lipid accumulation; Cd36 and adiponectin mRNA expression” value is “affected neither”. For the same substance, the “increase of plasma concentration” value in data set [2] (200 mg/person intravenous) is given as above 3000 fold. The “adverse effects / tolerability” value in data set [2] (200 mg/person) is “does not cause any adverse effects; also recorded: well tolerated”.
